Measurements from the DeepSol protein solubility set.

assay: soluble on expression in E. coli; label from the status in PepcDB or PDB records

| Sequence | soluble on expression in E. coli |
| --- | --- |
| MAHHHHHHMPLYRLSVSAETEGVVCIRPMRPRNWGLKVTCDACREFSPNFVYVDESEECDSGGGGTRNAAFKCASCKTLITAHIDPESYGTYRPEEDNGKGDGNSILIIEVRGATPTELEIDDKWVVEAEGATFEAADLSTDWMEYDEKSGNAVSVSQFTVEFSRLKK | soluble |
| MAHHHHHHMQKTLFDFVRKGTSSGPAAANAVAAAHRERQWPSASNGEDSTPRTDSPPKKHAKTRREGSRSRGNSRECEGTSLKGASRDDAIDLDASVSVALLESTFPPSEEGGAIDKSKHVSSGTAVPAGAAATAAASSGTARSDAPQLQPAATSSRWLAGLITNLEWRDFLAPITVDSWRSGAFARIEHFLDGEMAKGKVILPPATDIFNAFNSCPFRDLKVVLLGQDPYHDLHQAHGLCFSVLPEVPLPPSLRNIYKELTTDIPGFQAPRHGYLQSWSEQGMLMLNATLTVEAHKANSHSKASGWTAFTDAVIQHLSQHHPNRLVFLLWGGYAQQKKKLIDASRHIVLESVHPSPLSASRGWFGCHCFSACNEALQSMGHLPMHWQLPLNASLP | not soluble |
| MAHHHHHHMQRWPCRRCCRAATLGSRTFVLVRRRAPSAFITTASHASSGAAPPWTVAHQRVCIIIPPVEKLTTPPSPRLSRRYVDSQTLDDSRTQQADAQEPDHFRFAIKNSERGLLDHGVTPDAIAFIAEAEEEYRASSSYLHDRPGGAGMPESETHVDEVTGQQTTTTRIAAPFGETYVPSNRERFAERQRVGELSRQLNLVDKPFMLDEHAQLNLRKERQLCELLASPMPQLAKADEVAHFLLNGVYAQNLALQPRSCESVMLLYSHASFLRRLEGPTKQLTGRAHDAARLAAPSSGADTRAVPRTPQDVPFLDDMRRLYTHQKRCFISPTPLSLEHFMTTLSVITAPSTTAFHLANRLLLDADKFVLLPTRTTYTAYFTVCHVNNAMQFAMARYTDAVQALQLPVDAPMLTALLKGLNESGYVEEAVSLLSRIGHVAVSTPLLNASLETLLLSEQALACFSLYDAMRGSSVKPNAETYTLLLLACEKSQQWRRVTAILAEMQRRRVRGNEQTLNLLLKGLLQERLHSYAAQLYHTMLAKKVPLWPALELGVRPLLR | not soluble |
| MAHHHHHHMQSNSAPVSYGAQLRASMQTLRANDTQFEQFTRGLGAVLQQWTALQLVAQHCDSRAPAVLYEDLCAWHKHDGEVYVDDMEVYFEEFFDNIRSARIEDDSMQEVGTVLHDMYCRCCLNDFSLVEHYLETLAMYVQTNPVAMSVNGGTNENLEDDAEEDAELGGDAVCEEGVDNEDEESEPMQAPTPKAPQQPPQPPRHQQQPQRKKRKNTSVRSRDGWNIVQ | not soluble |
| MAHHHHHHMRAIQTLFIHSDKRVFLFPNTSNRTKYPSLITFPKIVLYSTPEAKRYRCVQKYLSTDFSSCSDNPHEILGRILRVPQSRSSMRKMLFTIPGIDPIQGILNGSRVCNELIRIKDVTWNRPHLIHAFFDHLPVFRFFLRSLVTLHPRTHRLHIHLVRAIHDDSRRSFLFLSFIIVAHAWR | not soluble |
| MAHHHHHHMRASTPPLYQRQPEGLAPSYNTGLPLAMPDVPTLRIPQHLSATSHAMPPTAAAQGEFVMAATAPRLGSLETSTRATNPAPFITQFPAAQAPNLHGYVSASPRTSGTGTETSASDYFRYAANLMRNTLPPPMTELAALEEEEKSLKREEEELRPQIIELERMREQLEEQTQKVAVELMQMVVLEQQYYVEPIVDYTAQIKNAEVQCVHLASRVEEAKHSLEELQRQHQSYDAVMEEKERLKKETCAVRERFATLENRRRLCMLQSEALFDVESRRGEEAASQAEETENQLMEMRNNEPLLGIKRSRRSSRSMSRGVSFAQKSIVLDTGSDGDDDGYARSTRHTGDTVSGLTQRGSWNSAGAEDEESEQDCDRDDICGISGQSVRYSLNDTKRVQLVVPAV | not soluble |
| MAHHHHHHMRCFSTKSTAPTKGFHDNASGKGSNSVPVKSSALFIEALSKRRTIYSLGNKLSQSHSEVIEIIEGTIRECPSSFNIKSSTVVILFGADHQKVWDIVKAALKKVTSEEQYAQSEMKVNNSFAAGAGTILFYEDGAAIKMQQKAFPRYAANVSTFSQQSSAMAQFAVWSALAQDGIGASLQHYNELIEADLRAAFDVPEEWQLIAQMPFGSIETPADKKTRNSDKGRVVVHGAQR | soluble |
| MAHHHHHHMRCGGRWIVERSDGFVIEVEKPGVSVVFGRDIGLPSAQRMDGKYVSRQQFSVEWKASSLHVRQLGKNPTFYSMEFHTLPGDGTAEKELVCCREEETREGKQMGDGGKGLNVILVPPVSNENFLASLRGGAKGIEPATLHFPGELNLPRFTVRYVVADEKSSEEKISREMLTVPLGSSKSDEVEEDERANQPWMTGSWRGILDSVLHEQQQQQQQAER | not soluble |
| MAHHHHHHMRDPQKNCDDVVALRETLKERAGEMAKKMKENERELFLNPMPLGISCDGLPLDTDPEFHALEVARLRERQEESCDEAKIHKLNDALNERAEDLARAKLAADRQYLNPEHLRVAVDELPLNEDRNFILKEALRQEKLQNSRESAAAIAALENELNNMAKAMAAEMLAKQRPSYLAPEHHGRRIEDLPLNDSDDFLKKERRRRDLLKQPSWDIDVVAEIDKELSEMADAMARAMNAAERPQYMKASYYDKTLSELSLDTDSIIARLEAQRARLKRNPVRNAEAIHATEAAIISRAEALAKASINVGRGGVFSASQAECRSISLTSMEANSFNLLRRRGWSS | soluble |
| MAHHHHHHMRLILLGAPGAGKGTQANFIKEKFGIPQISTGDMLRAAVKAGTPLGVEAKTYMDEGKLVPDSLIIGLVKERLKEADCANGYLFDGFPRTIAQADAMKEAGVAIDYVLEIDVPFSEIIERMSGRRTHPASGRTYHVKFNPPKVEGKDDVTGEPLVQRDDDKEETVKKRLDVYEAQTKPLITYYGDWARRGAENGLKAPAYRKISGLGAVEEIRARVRRAQVSE | soluble |
| MAHHHHHHMRQGRVRTESTVQRFAKTPIGEGFDLWDRDYLLGAMRLFLFKAETAPPFQVGPCMDATGEILVQLEELEDAREQFSIAAEKYLITQQQQLAKIMEIKALECERGPQAALEELTAFLKKETASTNATAVPAPITRAYAYQAELLLKTATPETPELFTEAVETAKLACNHAWDRVHMGYVVLGDALKASGCPDEARKAYSEAFETNRNCITALERHIEVLKEYIAESNDDMRIEALRKELLPLLESAISLHPRPTLIREKAFLLSETLGDAAALEFLDPLICNPPPEEADAAGNVGGRTVATLLKAKAAILADGGKMQEALEVAEAALKESPSDEEAKAIVAELRESL | soluble |
| MAHHHHHHMRQTGSFQPFFLRGKVVHGKGRGGSQLGFPTANIGLDKDVMECLQPYKNLVVYGWGTVSQVPGKERESFGPYPFAASIGFNMQFDEKTLTVEPYFLHEFGWDFYGAVVKIIVLGEIRSMGSFHSLQALVDTIKSDVQFTRDMLQKPQLQEFSRHSLFESPSSTIPYFEDLPDE | soluble |
| MAHHHHHHMRSLPNIIVTGVPGVGKTTLCEELVEILNKQLKENQQAESASQMKHLNLSKVIKEERLYEEFDDQLDASIYSSDMVNEKLEKLKLENGGYIIDFHDVDFLDEKELIDHIFLLTASTNKLYERLEKRNYSEEKIKNNIECEIFQVIKEDILTSYNDPSIFDELENNDMEQYESNLQLIKGWVLSWVKNGVAMPR | soluble |
| MAHHHHHHMSAPTALTVPRRSASDAALADATRRELEEEMGRSDKPEQPTPPAGWQVVRKPGTCTFDLTKSFEGEDLVVRYSTNQDSDKANSHNIFVYITQKNGQTMQADLSIEEGELVLNNIRFYDEAALAKDTGAEAEAKRNELYTGPLVHELDYDLLNCVMTYLEKRGVDEKLGEFVVLYSFWAEQQDYEAWLTTMNKFAS | soluble |
| MAHHHHHHMSEARQIQSMIDFIEREAQEKAEELEAAAQEEYDVEKMRLVEAEKAKIRAMAEKKLKQVDVDRRVARANYSKVQRMRVMEERARTMEKLHEQTRQKIVAMVNNPPQYKPMLVRLIHQSLMSIRTDAVVQCRKEDEAEVVRSIPELERWYKEKTGATISIQTSKTYLDTAEAWGGVVVKSTDGRVVCNNTLSYRTKTCFDEQLPTVRFHLFNPDAPL | soluble |
| MAHHHHHHMSEENNIRKGPSFVFHDIKKKRMREIILMCNKKKQKKMLLKSLNIKFIYEEKNKKRVKIHVDNFLPVSINSDMEIIKKYKEILYDDNYCNIYDINKLKIGKMKKILKDFFYDIFLFCKYIFYKFIYKCQNIINLFLEYKQIMLSHCINRVPYFIKVFSFSSLHILLKYSIRSFFKNYSFYKYIFTPNYKICFLCIHKNSYYSEIEKEDTSQICFDDVSTCQEINILGSEEYLRGLVTSSVGFIDNYDDKNRGNNFLEIFQKHMNIFDIKKDDVHFKINKYEQRIDIEKAFSHIKNNILQKYDERRREKKKDNDKLIRRVQNMYDDVENKIMSSLKKILDITNYDEEREKC | soluble |
| MAHHHHHHMSELQAAAGVFGRGTAAGDAIYRCYARPTKESTLDPELLARLQKMRLEREAAEAALFRPKPVPKSKAMISRPRVGLGRRISEEEIARRRLDALPHKKREESIQRELRAFGRPSLLPPLYKSPPITVAEKERLRQIFQFGELPPKPLNFTGANRVRYALIDRRFRLKDRFETLKKHVDALREELRQLRQQPQKSALPETVADGKGNENEIIPSGAEIIRRFHRRDPVMALERRMLEQELTTSIGEVLQEMKEIDFDLRQLDENEAKRYIPKP | not soluble |
| MAHHHHHHMSEQNGAHSLQAELERMNAAIESYALQLDTINSAIESIDSENHSDDVSRQIFEYQTACERDPANISAEDALDTVTRLENTLKIVRRRNQLLAKENATQQKLLNDRSKFLLKETKNYENLVDRTGWHEQCSLNPEDEAQKASDIQEMSQLEVTVQRELRAAHTILKKKEALLRGLEEQLAKGTDLDAELNNAYNDIRVRKRECRELELRLEHLRKCSKKNDEALTVFENHGQSVSIEYMETDKDFLKDAVAQMKLVCRRQDNVIRAQLTRQQQLQTRLDTILRSLREMNLEKEYERNVSKSALVPSASREEPEDVSSILPKEETIPIHTYRLIFKNKELMNTNVVRKNMLVLEKEGVIQALEASLMKYANALNMTTRQLENMKINKGFEMTELMVELQQQHKNYLQQLEQIMQENNKLKKQLYRTPQLRTLIKNR | not soluble |
| MAHHHHHHMSFSKFMKCSTQLSRRLSNFEGKGTFNKSAFYNCTREKCSIVCLRKKMNVELKKICEISKMNKRNYSSECENYEFKAETKKLLQIVAHSLYTDKEVFIRELISNSSDAIEKLRFLLQSGNIKASENITFHIKVSTDENNNLFIIEDSGVGMNKEEIIDNLGTIAKSGSLNFLKKLKEQKESINRNNNINKNEIDNKINNNNNMDVPIEGNEKSQEGDIIGQFGVGFYSSFVVSNKVEVFTRSYDNNSSKGYHWVSYGNGTFTLKEVDNIPKGTKIICHLKDSCKEFSNIQNVQKIVEKFSSFINFPVYVLKKKKILQTRKDIEQNELNDHTQQNELNHHNDQNDHTQQNELNHHNDQNDHTQQNELNHHNDQNDHTQQNELNHHVEHHKNVVENKNDEYEKNMDNRTSDNIKPESLSKQNDYENMNQCNNEETVLNRTKELNEEHIVEEILVNKQKPLWCKDNVTEEEHRHFFHFLNKNKSYNEDNKSYLYNMLYKTDAPLSIKSVFYIPEEAPSRLFQQSNDIEISLYCKKVLVKKNADNIIPKWLYFVKGVIDCEDMPLNISRENMQDSSLINKLSRVVVSKILKTLEREADINEEKYLKFYKNYNYNLKEGVLEDSNKNHYKNSLMNLLRFYSINQNKFISLKQYVNNFRNNQKNIYYFSANDKNVALNSPYMEPFKKQNIDVLLLLEEIDEFVLMNLQTYKDAKFVSIDTSQNEDFDEAVLNTNKNDNEKKQSIFFNDEQKKELQAYFKQVLGSK | not soluble |
